Biological target: the molecule itself
Assay: cryo-EM structure

B1: Thermophilic Factor 55 β subunit (TF55β) chaperonin complex from Sulfolobus solfataricus (natural protein, S. solfataricus, UniProt Q9V2T8 1-554, looked up)
chain: MATATVATTPEGIPVIILKEGSSRTYGKEALRANIAAVKAIEEALKSTYGPRGMDKMLVDSLGDITITNDGATILDKMDLQHPTGKLLVQIAKGQDEETADGTKTAVILAGELAKKAEDLLYKEIHPTIIVSGYKKAEEIALKTIQEIAQPVTINDTDVLRKVALTSLGSKAVAGAREYLADLVVKAVAQVAELRGDKWYVDLDNVQIVKKHGGSVNDTQLVYGIVVDKEVVHPGMPKRIENAKIALLDASLEVEKPELDAEIRINDPTQMHKFLEEEENILKEKVDKIAATGANVVICQKGIDEVAQHYLAKKGILAVRRAKKSDLEKLARATGGRVISNIDELTSQDLGYAALVEERKVGEDKMVFVEGAKNPKSVSILIRGGLERVVDETERALRDALGTVADVIRDGRAVAGGGAVEIEIAKRLRKYAPQVGGKEQLAIEAYANAIEGLIMILAENAGLDPIDKLMQLRSLHENETNKWYGLNLFTGNPEDMWKLGVIEPALVKMNAVKAATEAVTLVLRIDDIVAAGKKSGSEPSGKKEKDKEEKSSED
stoichiometry N: 18
